Target: T1, C-terminal shedding-resistant peptide of MSLN (residues 582-598) (human, UniProt Q13421-3)
T1 construct: Mesothelin, human, 17-residue peptide I582 to S598, holds most of the major sheddase cleavage sites; numbers count on: the 622-residue precursor, isoform Q13421-3; also called C-terminal peptide; 17-residue peptide; source: synthetic peptide (GenScript)
T1 chain: IPNGYLVLDLSMQEALS
Experiment: crystal structure; synthetic peptide 582-598 mixed with Fab(15B6) at a molar ratio of 3:1 in 20 mmol/L Tris, 100 mmol/L NaCl, pH 7.5, overnight at 4°C; 1.74 Å
Conditions: both partners purified

B1: Fab fragment of mAb 15B6 (Fab, V domains shown)
VH: EVQLQQSGPVLVKPGASVKISCKASGYSFTGYYMHWVRQSNGKSLEWIGRINPYTGVPSYKHNFKDKASLTVDKSSSTAYMELHSLTSEDSAVYYCARELGGYWGQGTTLTVSS
VL: QAVVTQESALTTSPGETVTLTCRSSTGAVTTGNYPNWVQEKPDHLFTGLIAGTNNRAPGVPARFSGSLIGDKAALTITGAQTEDEAIYFCALWFSSHWVFGGGTKLTVL
notes: heavy chain of the Fab in PDB 7U8C (214 residues modelled); mouse IgG2b; light chain of the Fab in PDB 7U8C (213 residues modelled); mouse lambda; mouse isotype IgG2b lambda; raised against the peptide I582-S598; also called Fab(15B6); Fab of Mab 15B6; source: mAb 15B6 obtained from GenScript, digested with immobilised papain, Fc removed on Protein A
  binding result: binds

Source: PMC10035497, “Structures of Cancer Antigen Mesothelin and Its Complexes with Therapeutic Antibodies” (Cancer Research Communications, 2023)
